Biological target: KDR-HA (human KDR with a C-terminal HA tag) (human, UniProt P35968 20-1356)
Assay: cell-based or functional assay

KDR-HA (human KDR with a C-terminal HA tag), sequence (P35968 20-1356): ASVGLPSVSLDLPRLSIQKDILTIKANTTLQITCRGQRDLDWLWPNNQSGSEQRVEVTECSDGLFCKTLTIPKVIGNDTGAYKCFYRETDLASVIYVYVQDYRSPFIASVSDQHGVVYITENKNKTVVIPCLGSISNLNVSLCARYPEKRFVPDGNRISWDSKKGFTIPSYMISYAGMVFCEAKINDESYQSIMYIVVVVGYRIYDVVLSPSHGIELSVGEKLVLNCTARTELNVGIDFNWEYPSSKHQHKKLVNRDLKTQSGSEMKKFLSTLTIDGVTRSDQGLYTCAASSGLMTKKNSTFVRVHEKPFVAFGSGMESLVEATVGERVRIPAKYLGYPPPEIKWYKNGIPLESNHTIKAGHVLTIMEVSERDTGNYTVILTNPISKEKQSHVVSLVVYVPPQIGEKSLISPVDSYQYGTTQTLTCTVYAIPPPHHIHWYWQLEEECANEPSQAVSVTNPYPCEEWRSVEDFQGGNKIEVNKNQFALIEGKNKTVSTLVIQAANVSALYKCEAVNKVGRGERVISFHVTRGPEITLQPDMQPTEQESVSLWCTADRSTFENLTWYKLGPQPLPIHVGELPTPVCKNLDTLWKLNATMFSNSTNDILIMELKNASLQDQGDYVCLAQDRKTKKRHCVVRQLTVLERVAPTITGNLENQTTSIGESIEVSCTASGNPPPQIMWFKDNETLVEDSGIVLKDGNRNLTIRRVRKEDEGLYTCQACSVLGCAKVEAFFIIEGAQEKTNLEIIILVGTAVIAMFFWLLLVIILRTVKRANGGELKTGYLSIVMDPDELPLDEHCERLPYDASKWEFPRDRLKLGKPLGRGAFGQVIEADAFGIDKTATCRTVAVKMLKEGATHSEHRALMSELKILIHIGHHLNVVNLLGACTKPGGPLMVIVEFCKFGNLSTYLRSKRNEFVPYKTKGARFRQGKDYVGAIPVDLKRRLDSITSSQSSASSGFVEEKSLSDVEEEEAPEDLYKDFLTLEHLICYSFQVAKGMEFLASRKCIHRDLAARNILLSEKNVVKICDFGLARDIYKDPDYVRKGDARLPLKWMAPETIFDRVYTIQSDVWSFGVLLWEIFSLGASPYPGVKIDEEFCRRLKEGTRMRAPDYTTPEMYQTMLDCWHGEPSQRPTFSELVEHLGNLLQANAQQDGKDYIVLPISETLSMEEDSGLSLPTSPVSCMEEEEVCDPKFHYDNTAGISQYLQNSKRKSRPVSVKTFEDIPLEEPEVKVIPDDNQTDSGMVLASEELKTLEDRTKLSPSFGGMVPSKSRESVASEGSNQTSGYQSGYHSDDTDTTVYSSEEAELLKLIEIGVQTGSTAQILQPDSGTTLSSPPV

- VEGF-induced phosphorylation of KDR (Tyr1175) in HUVECs pre-treated with mAb-32 (10 ug/mL), Western blot, relative to VEGF alone: 53.2 % of VEGF-alone control
- VEGF-induced phosphorylation of KDR (Tyr1175) in HUVECs pre-treated with mAb-43 (10 ug/mL), Western blot, relative to VEGF alone: 56.9 % of VEGF-alone control
B1: PTK7-FLAG (human PTK7 with a C-terminal FLAG tag) (receptor, UniProt Q13308 31-1070, looked up)
chain: AIVFIKQPSSQDALQGRRALLRCEVEAPGPVHVYWLLDGAPVQDTERRFAQGSSLSFAAVDRLQDSGTFQCVARDDVTGEEARSANASFNIKWIEAGPVVLKHPASEAEIQPQTQVTLRCHIDGHPRPTYQWFRDGTPLSDGQSNHTVSSKERNLTLRPAGPEHSGLYSCCAHSAFGQACSSQNFTLSIADESFARVVLAPQDVVVARYEEAMFHCQFSAQPPPSLQWLFEDETPITNRSRPPHLRRATVFANGSLLLTQVRPRNAGIYRCIGQGQRGPPIILEATLHLAEIEDMPLFEPRVFTAGSEERVTCLPPKGLPEPSVWWEHAGVRLPTHGRVYQKGHELVLANIAESDAGVYTCHAANLAGQRRQDVNITVATVPSWLKKPQDSQLEEGKPGYLDCLTQATPKPTVVWYRNQMLISEDSRFEVFKNGTLRINSVEVYDGTWYRCMSSTPAGSIEAQARVQVLEKLKFTPPPQPQQCMEFDKEATVPCSATGREKPTIKWERADGSSLPEWVTDNAGTLHFARVTRDDAGNYTCIASNGPQGQIRAHVQLTVAVFITFKVEPERTTVYQGHTALLQCEAQGDPKPLIQWKGKDRILDPTKLGPRMHIFQNGSLVIHDVAPEDSGRYTCIAGNSCNIKHTEAPLYVVDKPVPEESEGPGSPPPYKMIQTIGLSVGAAVAYIIAVLGLMFYCKKRCKAKRLQKQPEGEEPEMECLNGGPLQNGQPSAEIQEEVALTSLGSGPAATNKRHSTSDKMHFPRSSLQPITTLGKSEFGEVFLAKAQGLEEGVAETLVLVKSLQSKDEQQQLDFRRELEMFGKLNHANVVRLLGLCREAEPHYMVLEYVDLGDLKQFLRISKSKDEKLKSQPLSTKQKVALCTQVALGMEHLSNNRFVHKDLAARNCLVSAQRQVKVSALGLSKDVYNSEYYHFRQAWVPLRWMSPEAILEGDFSTKSDVWAFGVLMWEVFTHGEMPHGGQADDEVLADLQAGKARLPQPEGCPSKLYRLMQRCWALSPKDRPSFSEIASALGDSTVDSKP

From paper PMC9496920, “Anti-PTK7 Monoclonal Antibodies Inhibit Angiogenesis by Suppressing PTK7 Function” (Cancers, 2022)
